{"source": "paper PMC2812052", "key": {"[1]": {"molecular_target": "recombinant hAα392-610 fragment corresponding to the full-length human fibrinogen αC-domain (human)", "assay": "SEC"}, "[2]": {"molecular_target": "recombinant hAα392-610 fragment corresponding to the full-length human fibrinogen αC-domain (human)", "assay": "AUC"}, "[3]": {"molecular_target": "recombinant bAα374-568 fragment corresponding to the full-length bovine fibrinogen αC-domain (bovine)", "assay": "SEC"}, "[4]": {"molecular_target": "recombinant bAα374-568 fragment corresponding to the full-length bovine fibrinogen αC-domain (bovine)", "assay": "AUC"}, "[5]": {"molecular_target": "recombinant human hAα425-503 fragment, truncated variant of the human fibrinogen αC-domain (human)", "assay": "SEC"}, "[6]": {"molecular_target": "recombinant human hAα425-503 fragment, truncated variant of the human fibrinogen αC-domain (human)", "assay": "AUC"}}, "note": "pKd: −log10 of the molar value. Where “and” joins values, the source holds several entries; their conditions need not be identical. Equal values may be shown once.", "data": [{"substance": "recombinant hAα392-610 fragment corresponding to the full-length human fibrinogen αC-domain (domain or fragment)", "values": [{"measurement": "oligomers (%) at 1.9 mg/mL, 0.15 M NaCl", "setting": "[1]", "value": 15.4, "unit": "%"}, {"measurement": "oligomers (%) at 3.8 mg/mL, 0.15 M NaCl", "setting": "[1]", "value": 32, "unit": "%"}, {"measurement": "oligomers (%) at 4.0 mg/mL, 2.0 M NaCl", "setting": "[1]", "value": 58.5, "unit": "%"}, {"measurement": "Ka", "setting": "[2]", "value": 83200, "unit": "M⁻¹"}, {"measurement": "pKd", "setting": "[2]", "value": 4.92}, {"measurement": "stoichiometry N", "setting": "[2]", "value": 11.3}]}, {"substance": "recombinant bAα374-568 fragment corresponding to the full-length bovine fibrinogen αC-domain (domain or fragment)", "values": [{"measurement": "oligomers (%) at 1.8 mg/mL, 0.15 M NaCl", "setting": "[3]", "value": 9.5, "unit": "%"}, {"measurement": "oligomers (%) at 3.7 mg/mL, 0.15 M NaCl", "setting": "[3]", "value": 27.2, "unit": "%"}, {"measurement": "oligomers (%) at 3.8 mg/mL, 2.0 M NaCl", "setting": "[3]", "value": 54.4, "unit": "%"}, {"measurement": "Ka", "setting": "[4]", "value": 26100, "unit": "M⁻¹"}, {"measurement": "pKd", "setting": "[4]", "value": 4.42}]}, {"substance": "recombinant human hAα425-503 fragment, truncated variant of the human fibrinogen αC-domain (domain or fragment)", "values": [{"measurement": "oligomers (%) at 1.6 mg/mL, 2.0 M NaCl", "setting": "[5]", "value": 43.6, "unit": "%"}, {"measurement": "oligomers (%) at 3.2 mg/mL, 0.15 M NaCl", "setting": "[5]", "value": 1.7, "unit": "%"}, {"measurement": "oligomers (%) at 3.2 mg/mL, 1.0 M NaCl", "setting": "[5]", "value": 26.2, "unit": "%"}, {"measurement": "oligomers (%) at 6.3 mg/mL, 0.15 M NaCl", "setting": "[5]", "value": 6.6, "unit": "%"}, {"measurement": "stoichiometry N", "setting": "[5]", "value": "5 and 6"}, {"measurement": "pKd", "setting": "[6]", "value": 2.94}]}]}
